Source: US20230242902A1, “A HIGHLY ERROR-PRONE […] R[…] FOR TARGETED CONTINUOUS EVOLUTION IN VIVO” (The Regents of the University of California, priority 2017, published 2023)
Values after ≈ are worked out from the molar mass of the structure shown. Values joined by “and” are separate entries in the source; they are usually repeats but may differ in a detail not shown here. Identical values can stand only once.

Legend:
[1] = Maximum soluble concentration in media; type: physicochemical; details: yeast culture media, aqueous buffer
p1-encoded leu2 (Q180*) = assay: qPCR measurement of p1-encoded leu2 (Q180*) copy number; type: cell-based, S. cerevisiae; details: qPCR-determined p1 copy number, OR-Y24 strains
Description: A calibration curve was established to correlate p1 copy number, determined via quantitative PCR (qPCR), with fluorescence of p1-encoded mKate2 (Table 1). Five TP-DNAP1 variants representing a wide range of copy numbers were transformed into ORY24 and passaged until w.t. p1 was displaced. The five OR-Y24 strains were grown to saturation, diluted 1:10,000 to mimic p1 fluctuation tests, and grown in triplicate 100 μL cultures and duplicate 40 mL cultures. 100 μL saturated cultures were subject to fluorescence measurement of mKate2 (ex/em=561 nm/620 nm, bandwidth=15 nm) on a flow cytometer (Invitrogen Attune NxT). Whole-cell DNA extracts were prepared from 40 mL cultures and used as templates for qPCR measurement of p1-encoded leu2 (Q180*), as described previously (Ravikumar et al., 2014). p1-encoded LEU2 was PCR amplified with qPCR-Leu2F and qPCR Leu2R; and genomic LEU3 was PCR amplified with qPCR-Leu3F and qPCR-Leu3R using SyBR Green (Fisher Scientific) master mix.

p2-encoded leu2* = assay: p2 leu2* fluctuation tests in GA-Y021 (p2 mutation rate reporter strain); type: cell-based, S. cerevisiae; details: GA-Y021, noncognate polymerase in trans, mutual orthogonality experiment
From the text: For fluctuation tests used to measure p2 mutation rates, leu2* served as a marker for detecting mutational events. leu2* is a disabled version of LEU2, where Q180 is replaced with a TAA stop codon. Q180 is a permissive site where mutation to any other codon other than TAG and TGA results in functional reversion to LEU2. These mutational events can be detected by plating scores of parallel cultures on medium lacking leucine and counting the number distribution of functional LEU2 mutants.
For TP-DNAP2 library screening, each library member was subjected to small-scale leu2* fluctuation tests with six replicates. 190 library members from each yeast library transformation were arrayed and inoculated into liquid SC medium lacking uracil and histidine, and passaged three times at 1:10,000 dilutions. mKate2 fluorescence was measured at every passage on a microplate reader (TECAN Infinite® 200 PRO, settings: λex=588, λem=633) to track p2 copy number stabilization. To perform fluctuation tests, each library member was diluted 1:10,000 into liquid SC medium buffered to pH 5.8 and lacking uracil, histidine, tryptophan, and dilutions were split into six 100 μL replicates. Cultures were grown for 48 hours at 30° C. to reach saturation. Saturated cultures were washed with 200 μL 0.9% NaCl to remove residual leucine and resuspended in 35 μL of 0.9% NaCl. 10 μL of this resuspension was spot plated onto solid SC medium buffered to pH 5.8 and lacking uracil, histidine, tryptophan and leucine. Spot plates were allowed to dry and incubated at 30° C. Colonies were counted after 5 days. Colony counts were used to calculate the expected number of LEU2 functional mutants (m), using the p0 method (Foster, 2006, Methods Enzymol, 409:195-213).
(§1) To precisely measure p1 and p2 per-base substitution mutation rates, several modifications were made to the small-scale protocol. First, 36 replicates were performed for reconfirmation of candidate TP-DNAP2 mutators, and 48 replicates for genomic and mutual orthogonality experiments. Titers were also determined for each strain after spot plating by pooling the residual volume from 4 replicates and plating dilutions on YPD. The expected number of LEU2 functional mutants (m) was determined by the Ma-Sandri-Sarkar maximum likelihood estimator (as calculated by the FALCOR tool and corrected for partial plating (Foster, 2006, Methods Enzymol, 409:195-213; Sarkar et al., 1992, Genetica, 85:173-179; Hall et al., 2009, Bioinformatics, 25:1564-1565). The mean mKate2 fluorescence was determined from 50,000 event counts on Attune™ NxT Flow Cytometer and converted to p2 copy number by using a calibration curve. To determine per-base substitution rates, the corrected m was normalized to the average cell titer, the p2 copy number, and the target size for functional leu2* reversion (2.33 bp). 95% confidence intervals were similarly scaled.
To identify error-prone TP-DNAP2s, a small library of TP-DNAP2s diversified at locations hypothesized to be responsible for DNAP fidelity was screened. […] Four distinct site-saturation mutagenesis libraries were generated, each diversifying S370, Y424, L474, or F882 in TP-DNAP2 encoded on pGA55-reTP-DNAP2. Due to unsuccessful attempts to generate a strain with a full deletion of p2-encoded TP-DNAP2 and simultaneous integration of mKate, URA3, and leu2*, each library was transformed into GA-Y021 for convenient screening. However, since GA-Y021 still encodes wt TP-DNAP2 on p2-delORF1-mUL*, p2 mutation rates measured in this format are the result of in tandem replication of p2 by wt TP-DNAP2 and each TP-DNAP2 variant encoded in trans. 6-fold coverage of each library was maintained by picking 190 yeast colonies and passaging under selection for URA3 to stabilize the copy number of p2-delORF1-mUL* in the presence of the newly introduced TP-DNAP2 variants. […]

p1-encoded leu2* = assay: p1 leu2* fluctuation tests in AR-Y304 (p1 mutation rate reporter strain, mutual orthogonality); type: cell-based, S. cerevisiae; details: AR-Y304, polymerase in trans
From the text: Strains for testing mutual orthogonality were generated by transforming a panel of CEN6/ARS4 vectors encoding TP-DNAP1 or TP-DNAP2 variants into two base strains, AR-Y304 and GA-Y021. AR-Y304 (Ravikumar et al., 2014, Nature Chemical Biology, 10:175-177) contains recombinant p1 encoding mKate2, URA3 and leu2* without disturbing the native TP-DNAP1 ORF. Similarly, GA-Y021 encodes recombinant p2 that replaces ORF1 with mKate2, URA3 and leu2* without disturbing the native TP-DNAP2 ORF.
as §1
To test whether the replication mechanisms of p1 and p2 are mutually orthogonal in vivo, p1 and p2 mutation rates were measured in the presence of a panel of TP-DNAP1 and TP-DNAP2 variants with varying mutation rates. Changes in p1 or p2 mutation rate induced by TP-DNAP variants would therefore signal a degree of cross-replication between TP-DNAP1/p1 and TP-DNAP2/p2, if any. A panel of six polymerases was introduced on CEN6/ARS4 vectors into two separate base strains, AR-Y304 (p1 mutation rate reporter strain) and GA-Y021 (p2 mutation rate reporter strain), encoding mKate2, URA3, and leu2* on either p1 or p2, respectively. Included in this panel were TP-DNAP1^WT and two error-prone TP-DNAP1 variants found in previous screens: TP-DNAP1^1777K, L900S and TP-DNAP1^L477V, L640Y, I777K, W814N. Also included were TP-DNAP2^WT and the error-prone TP-DNAP2^S370Q and TP-DNAP2^Y424Q variants found in this work. In AR-Y304 and GA-Y021, both p1 and p2 still encode their native wt TP-DNAP's. Any contribution to replication by a third TP-DNAP encoded in trans is monitored by detecting changes in linear plasmid mutation rate. Importantly, these experiments afford each DNAP an opportunity to replicate its native plasmid and lose its attached TP, becoming “spent” and perhaps more likely to replicate its noncognate linear plasmid through DNAP exchange (Klassen and Meinhardt, 2007, Linear Protein-Primed Replicating Plasmids in Eukaryotic Microbes, in Microbial Linear Plasmids, pp 1 87-226. Springer, Berlin, Heidelberg). The presence of TP-DNAP1^WT or TP-DNAP2^WT in trans had no effect on their noncognate linear plasmids' mutation rate. […] Likewise, p1 mutation rate was unaltered in the presence of mutagenic TP-DNAP2^S370Q and TP-DNAP2^Y424Q, which increased p2 mutation rate by 29- and 16-fold, respectively (FIG. 9). Thus, TP-DNAP1 replicates p1 with at least 870-fold specificity over p2, while TP-DNAP2 targets p2 with at least 29-fold specificity over p1. The level of mutual orthogonality measured here is limited by the error-rates of DNAPs used, especially that of TP-DNAP2 variants.

Molecule | solubility [1] | Average leu2 (Q180*) copy number per cell (p1-encoded leu2 (Q180*)) | change in p2 mutation rate by TP-DNAP1 (p2-encoded leu2*) | fold increase of p1 mutation rate (p1-encoded leu2*)
CCc1nc(N)nc(N)c1-c1ccc(Cl)cc1 [pyrimethamine] | 3000 µM (≈ 746 µg/mL) | – | – | –
I777K, L900S: TP-DNAP1 variant, encoded by SEQ ID NO:7 (protein, listed as Kluyveromyces lactis) MDYKDKALNDLRNVYADFDSLPLDFRQILIKDRATLLQKEDVEKKILERQEDAKKYAEYLKQSEIPERISLPNIKRHKGVSISFEETSEDMVLEPRPFIFDGLNIRCFRRETIFSLKNKILNMVKESSSFKNVSRQSVSFMYFKIFNKGKVIASTKSVNIYEDKIDERLEDLCNNFDDVLKKIIDVTYGYESLFVSETYSYVIFYAKSIYFPQPRCVNNWGNNIPNILTFDSFKLFTANKNNVSCIKQCSRFLWQKDFNTLEEMIEYKNGNICIVTPQLHINDVRDIKSFNDIRLYSESPIKTFSVIDNTITYLFYFKEHLGVIFNITKSRHDRRVTKFSPLSKFSDVKNITVCFDIESYFDPEKESNQVNIPFICCASIIYNKVIGNIVDFEGRDCVAQMIEYVVDICGELNISSVELIAHNGGGYDFHYILSSMYNPAAIKNILIRNNSFISFNFAHDGVKFSVKDSYSFLLCSLANASKAFLNEETFKKTDFPHHDLKTADDLYKVYKEWSSVNTEINHVVEKEKLLITSEHIVNFTKNDKSKTLIEWSKDYCRNDVLVLSKVWLEFKNAVEDIFNCELVDQTMTLAGLSYKLFQANMPFDVELRHPNKEDYFNMREALIGGRCISVNGIYKDVLCLDVKSLYPASMAFYDQPYGSFKRVSSRPKDELGIYYVRVTPNRNNKSNFFPIRSHNKITYNNFEESTYIAWYTNVDIDIGLSEGHNIEYIPFDSYGNIGYSWSKKGKIFEKYIKDVLYKLKIKYEKQNNKVKRNVIKKIMNSLWGKFAQKWVNFEYFIKSEDDIDFESEEAYKIWDTDFMLIKKIKESTYSSKPIQNGVFTLSWARYHMKSIWDAGAKEGAECIYSDTDSIFVHKEHFKKNAKFMLNGLKVPIIGSEVGQSELECEFDKLLCAGKKQYMGFYTYFQDGKPCIKEKKRFKGIPSNYIIPELYAHLLSGADKEAKIQFLKFRREWGSVKGYIENKTVKAT | – | 22.5 and 38.6 | no statistically significant change | 380 fold
